Test results published in patent publication US20200231652A1.
Each block holds one binder with its values, some of them ahead of it.

Columns and labels:
TGF-β3 = TGF-β3 (UniProt P10600); assay: cell-based or functional assay
TGF-β1 [1] = target: TGF-β1 (UniProt P01137); assay: cell-based or functional assay
TGF-β2 = TGF-β2 (UniProt P61812); assay: cell-based or functional assay
TGF-β1 [2] = target: TGF-β1 (UniProt P01137)

TGF-β3, sequence (P10600 301-412 limits assumed): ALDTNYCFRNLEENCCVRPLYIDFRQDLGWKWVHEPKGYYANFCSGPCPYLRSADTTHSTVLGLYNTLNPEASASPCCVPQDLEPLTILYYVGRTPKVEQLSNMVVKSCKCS
TGF-β2, sequence (P61812 303-414 limits assumed): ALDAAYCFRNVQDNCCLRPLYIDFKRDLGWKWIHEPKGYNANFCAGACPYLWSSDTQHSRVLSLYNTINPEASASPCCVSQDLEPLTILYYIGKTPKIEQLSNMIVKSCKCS
TGF-β1, sequence (P01137 279-390 limits assumed): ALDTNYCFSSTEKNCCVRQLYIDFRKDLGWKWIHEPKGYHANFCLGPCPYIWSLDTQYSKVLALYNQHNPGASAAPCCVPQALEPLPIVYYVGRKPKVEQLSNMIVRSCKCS

- Av IC50, TGF-β neutralization, Mv1Lu cell luciferase reporter assay (TGF-β3): 0.001 pM
- Av IC50, TGF-β neutralization, Mv1Lu cell luciferase reporter assay (TGF-β1 [1]): 0.001 pM
- IC50, A549 cell IL-11 release assay (TGF-β1 [1]): 5 pM
- Av IC50, TGF-β neutralization, Mv1Lu cell luciferase reporter assay (TGF-β2): 96200 pM
- Fold Change Fc-T2m, A549 cell IL-11 release assay [table] (TGF-β1 [2]): 10 fold
- Fold Change T22d35, A549 cell IL-11 release assay [table] (TGF-β1 [2]): 101 fold
- IC50, A549 cell IL-11 release assay [table] (TGF-β1 [2]): 5.73 pM
B1: FC5-Fc-T22d35 (Fc fusion)
chain: EVQLQASGGGLVQAGGSLRLSCAASGFKITHYTMGWFRQAPGKEREFVSRITWGGDNTFYSNSVKGRFTISRDNAKNTVYLQMNSLKPEDTADYYCAAGSTSTATPLRVDYWGKGTQVTVSSASEPRGPTIKPCPPCKCPAPNLLGGPSVFIFPPKIKDVLMISLSPIVTCVVVDVSEDDPDVQISWFVNNVEVHTAQTQTHREDYNSTLRVVSALPIQHQDWMSGKEFKCKVNNKDLPAPIERTISKPKGSVRAPQVYVLPPPEEEMTKKQVTLTCMVTDFMPEDIYVEWTNNGKTELNYKNTEPVLDSDGSYFMYSKLRVEKKNWVERNSYSCSVVHEGLHNHHTTKSFSRTPGTGIPPHVQKSVNNDMIVTDNNGAVKFPQLCKFCDVRFSTCDNQKSCMSNCSITSICEKPQEVCVAVWRKNDENITLETVCHDPKLPYHDFILEDAASPKCIMKEKKKPGETFFMCSCSSDECNDNIIFSEEYNTSNPDIPPHVQKSVNNDMIVTDNNGAVKFPQLCKFCDVRFSTCDNQKSCMSNCSITSICEKPQEVCVAVWRKNDENITLETVCHDPKLPYHDFILEDAASPKCIMKEKKKPGETFFMCSCSSDECNDNIIFSEEYNTSNPD

- Av IC50, TGF-β neutralization, Mv1Lu cell luciferase reporter assay (TGF-β3): 0.015 pM
- Av IC50, TGF-β neutralization, Mv1Lu cell luciferase reporter assay (TGF-β1 [1]): 0.017 pM
- Av IC50, TGF-β neutralization, Mv1Lu cell luciferase reporter assay (TGF-β2): 433000 pM
B2: FC5-Fc-T2m (Fc fusion)
chain: EVQLQASGGGLVQAGGSLRLSCAASGFKITHYTMGWFRQAPGKEREFVSRITWGGDNTFYSNSVKGRFTISRDNAKNTVYLQMNSLKPEDTADYYCAAGSTSTATPLRVDYWGKGTQVTVSSASEPRGPTIKPCPPCKCPAPNLLGGPSVFIFPPKIKDVLMISLSPIVTCVVVDVSEDDPDVQISWFVNNVEVHTAQTQTHREDYNSTLRVVSALPIQHQDWMSGKEFKCKVNNKDLPAPIERTISKPKGSVRAPQVYVLPPPEEEMTKKQVTLTCMVTDFMPEDIYVEWTNNGKTELNYKNTEPVLDSDGSYFMYSKLRVEKKNWVERNSYSCSVVHEGLHNHHTTKSFSRTPGTGIPPHVQKSVNNDMIVTDNNGAVKFPQLCKFCDVRFSTCDNQKSCMSNCSITSICEKPQEVCVAVWRKNDENITLETVCHDPKLPYHDFILEDAASPKCIMKEKKKPGETFFMCSCSSDECNDNIIFSEEYNTSNPD

- Av IC50, TGF-β neutralization, Mv1Lu cell luciferase reporter assay (TGF-β3): 0.026 pM
- Av IC50, TGF-β neutralization, Mv1Lu cell luciferase reporter assay (TGF-β1 [1]): 1.45 pM
- IC50, A549 cell IL-11 release assay (TGF-β1 [1]): 5 pM
- Av IC50, TGF-β neutralization, Mv1Lu cell luciferase reporter assay (TGF-β2): 108000 pM
- Fold Change Fc-T2m, A549 cell IL-11 release assay [table] (TGF-β1 [2]): 9 fold
- Fold Change T22d35, A549 cell IL-11 release assay [table] (TGF-β1 [2]): 94 fold
- IC50, A549 cell IL-11 release assay [table] (TGF-β1 [2]): 6.17 pM
B3: hIgG2Fc-CCCC-T22d35 fusion (Fc fusion)
chain: ERKCCVECPPCPAPPVAGPSVFLFPPKPKDTLMISRTPEVTCVVVDVSHEDPEVQFNWYVDGVEVHNAKTKPREEQFNSTFRVVSVLTVVHQDWLNGKEYKCKVSNKGLPAPIEKTISKTKGQPREPQVYTLPPSREEMTKNQVSLTCLVKGFYPSDISVEWESNGQPENNYKTTPPMLDSDGSFFLYSKLTVDKSRWQQGNVFSCSVMHEALHNHYTQKSLSLSPGKIPPHVQKSVNNDMIVTDNNGAVKFPQLCKFCDVRFSTCDNQKSCMSNCSITSICEKPQEVCVAVWRKNDENITLETVCHDPKLPYHDFILEDAASPKCIMKEKKKPGETFFMCSCSSDECNDNIIFSEEYNTSNPDIPPHVQKSVNNDMIVTDNNGAVKFPQLCKFCDVRFSTCDNQKSCMSNCSITSICEKPQEVCVAVWRKNDENITLETVCHDPKLPYHDFILEDAASPKCIMKEKKKPGETFFMCSCSSDECNDNIIFSEEYNTSNPD
